For one assay, the target named is Trio_(1284-2638) (human) (UniProt O75962).

The results in this text go back to paper PMC9372627.

Sequence of Gαq·GDP·AlF4^- (P21279 whole entry): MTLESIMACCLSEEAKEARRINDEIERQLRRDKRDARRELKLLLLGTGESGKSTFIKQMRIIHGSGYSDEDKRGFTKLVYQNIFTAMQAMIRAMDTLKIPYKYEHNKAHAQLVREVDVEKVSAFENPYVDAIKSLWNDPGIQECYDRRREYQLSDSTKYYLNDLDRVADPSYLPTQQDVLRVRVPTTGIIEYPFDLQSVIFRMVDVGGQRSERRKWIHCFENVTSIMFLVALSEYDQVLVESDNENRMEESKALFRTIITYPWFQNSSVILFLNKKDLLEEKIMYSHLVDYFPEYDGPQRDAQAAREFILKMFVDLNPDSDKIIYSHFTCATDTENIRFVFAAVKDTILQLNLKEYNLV

Turning to “Gαq·GDP·AlF4^- (from UniProt P21279 1-359) (natural protein)”, the RhoA GEF activity (FRET-based nucleotide exchange assay with MANT-GTP), enhancement by 200 nM Gαq·GDP·AlF4^- in the assay with TrioC (human) and with Trio_(1284-2638) (human) was 2.5 fold each time.
